Assay results as given in the supplement of paper PMC10266784.

B1: library; numbered along this chain (parent)
chain: MAAAAAAAAEQQSSNGPVKKSMREKAVERRSVNKEHNSNFKAGYIPIDEDRLHKTGLRGRKGNLAICVIILLFILAVINLIITLVIWAVIRIGPNGCDSMEFHESGLLRFKQVSDMGVIHPLYKSTVGGRRNENLVITGNNQPIVFQQGTTKLSVENNKTSITSDIGMQFFDPRTQNILFSTDYETHEFHLPSGVKSLNVQKASTERITSNATSDLNIKVDGRAIVRGNEGVFIMGKTIEFHMGGNMELKAENSIILNGSVMVSTTRLPSSSSGDQLGSGDWVRYKLCMCADGTLFKVQVTSQNMGCQISDNPCGNTH

Variants of: B1
Assay: SGCB cell-surface expression functional score (HA stain, bin4 vs bin1, normalised to synonymous) (log10 ratio); higher = more cell-surface SGCB (functional)
How it was run: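 Sorting and sequencing yield the functional score, defined as the log ratio of a variant's highest-bin frequency to its lowest-bin frequency, with the median taken over codons and replicate transductions. The libraries, codon-saturation sets of HA-tagged, YFP-fused human beta-sarcoglycan, went into HEK293 cells stably carrying alpha-, gamma- and delta-sarcoglycan by duplicate lentiviral transduction at MOI <0.1. Cells were stained on ice with Alexa Fluor 647 anti-HA, fixed and split into four 5% intensity bins, and synonymous variants were scaled per section to mean 0, SD 0.5.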

Variant | SGCB cell-surface expression functional score (log10)
MAAAAAAAAEQQSSNGPVKKSMREKAVERRSVNKEHNWNFKAGYIPIDEDRLHKTGLRGRKGNLAICVIILLFILAVINLIITLVIWAVIRIGPNGCDSMEFHESGLLRFKQVSDMGVIHPLYKSTVGGRRNENLVITGNNQPIVFQQGTTKLSVENNKTSITSDIGMQFFDPRTQNILFSTDYETHEFHLPSGVKSLNVQKASTERITSNATSDLNIKVDGRAIVRGNEGVFIMGKTIEFHMGGNMELKAENSIILNGSVMVSTTRLPSSSSGDQLGSGDWVRYKLCMCADGTLFKVQVTSQNMGCQISDNPCGNTH [S38W] | -0.17
MAAAAAAAAEQQSSNGPVKKSMREKAVERRSVNKEHNYNFKAGYIPIDEDRLHKTGLRGRKGNLAICVIILLFILAVINLIITLVIWAVIRIGPNGCDSMEFHESGLLRFKQVSDMGVIHPLYKSTVGGRRNENLVITGNNQPIVFQQGTTKLSVENNKTSITSDIGMQFFDPRTQNILFSTDYETHEFHLPSGVKSLNVQKASTERITSNATSDLNIKVDGRAIVRGNEGVFIMGKTIEFHMGGNMELKAENSIILNGSVMVSTTRLPSSSSGDQLGSGDWVRYKLCMCADGTLFKVQVTSQNMGCQISDNPCGNTH [S38Y] | -0.07
MAAAAAAAAEQQSSNGPVKKSMREKAVERRSVNKEHNSLFKAGYIPIDEDRLHKTGLRGRKGNLAICVIILLFILAVINLIITLVIWAVIRIGPNGCDSMEFHESGLLRFKQVSDMGVIHPLYKSTVGGRRNENLVITGNNQPIVFQQGTTKLSVENNKTSITSDIGMQFFDPRTQNILFSTDYETHEFHLPSGVKSLNVQKASTERITSNATSDLNIKVDGRAIVRGNEGVFIMGKTIEFHMGGNMELKAENSIILNGSVMVSTTRLPSSSSGDQLGSGDWVRYKLCMCADGTLFKVQVTSQNMGCQISDNPCGNTH [N39L] | -0.02
MAAAAAAAAEQQSSNGPVKKSMREKAVERRSVNKEHNSVFKAGYIPIDEDRLHKTGLRGRKGNLAICVIILLFILAVINLIITLVIWAVIRIGPNGCDSMEFHESGLLRFKQVSDMGVIHPLYKSTVGGRRNENLVITGNNQPIVFQQGTTKLSVENNKTSITSDIGMQFFDPRTQNILFSTDYETHEFHLPSGVKSLNVQKASTERITSNATSDLNIKVDGRAIVRGNEGVFIMGKTIEFHMGGNMELKAENSIILNGSVMVSTTRLPSSSSGDQLGSGDWVRYKLCMCADGTLFKVQVTSQNMGCQISDNPCGNTH [N39V] | 0.44
MAAAAAAAAEQQSSNGPVKKSMREKAVERRSVNKEHNSKFKAGYIPIDEDRLHKTGLRGRKGNLAICVIILLFILAVINLIITLVIWAVIRIGPNGCDSMEFHESGLLRFKQVSDMGVIHPLYKSTVGGRRNENLVITGNNQPIVFQQGTTKLSVENNKTSITSDIGMQFFDPRTQNILFSTDYETHEFHLPSGVKSLNVQKASTERITSNATSDLNIKVDGRAIVRGNEGVFIMGKTIEFHMGGNMELKAENSIILNGSVMVSTTRLPSSSSGDQLGSGDWVRYKLCMCADGTLFKVQVTSQNMGCQISDNPCGNTH [N39K] | 0.08
MAAAAAAAAEQQSSNGPVKKSMREKAVERRSVNKEHNSGFKAGYIPIDEDRLHKTGLRGRKGNLAICVIILLFILAVINLIITLVIWAVIRIGPNGCDSMEFHESGLLRFKQVSDMGVIHPLYKSTVGGRRNENLVITGNNQPIVFQQGTTKLSVENNKTSITSDIGMQFFDPRTQNILFSTDYETHEFHLPSGVKSLNVQKASTERITSNATSDLNIKVDGRAIVRGNEGVFIMGKTIEFHMGGNMELKAENSIILNGSVMVSTTRLPSSSSGDQLGSGDWVRYKLCMCADGTLFKVQVTSQNMGCQISDNPCGNTH [N39G] | 0.13
MAAAAAAAAEQQSSNGPVKKSMREKAVERRSVNKEHNSEFKAGYIPIDEDRLHKTGLRGRKGNLAICVIILLFILAVINLIITLVIWAVIRIGPNGCDSMEFHESGLLRFKQVSDMGVIHPLYKSTVGGRRNENLVITGNNQPIVFQQGTTKLSVENNKTSITSDIGMQFFDPRTQNILFSTDYETHEFHLPSGVKSLNVQKASTERITSNATSDLNIKVDGRAIVRGNEGVFIMGKTIEFHMGGNMELKAENSIILNGSVMVSTTRLPSSSSGDQLGSGDWVRYKLCMCADGTLFKVQVTSQNMGCQISDNPCGNTH [N39E] | 0.54
MAAAAAAAAEQQSSNGPVKKSMREKAVERRSVNKEHNSPFKAGYIPIDEDRLHKTGLRGRKGNLAICVIILLFILAVINLIITLVIWAVIRIGPNGCDSMEFHESGLLRFKQVSDMGVIHPLYKSTVGGRRNENLVITGNNQPIVFQQGTTKLSVENNKTSITSDIGMQFFDPRTQNILFSTDYETHEFHLPSGVKSLNVQKASTERITSNATSDLNIKVDGRAIVRGNEGVFIMGKTIEFHMGGNMELKAENSIILNGSVMVSTTRLPSSSSGDQLGSGDWVRYKLCMCADGTLFKVQVTSQNMGCQISDNPCGNTH [N39P] | -0.17
MAAAAAAAAEQQSSNGPVKKSMREKAVERRSVNKEHNSMFKAGYIPIDEDRLHKTGLRGRKGNLAICVIILLFILAVINLIITLVIWAVIRIGPNGCDSMEFHESGLLRFKQVSDMGVIHPLYKSTVGGRRNENLVITGNNQPIVFQQGTTKLSVENNKTSITSDIGMQFFDPRTQNILFSTDYETHEFHLPSGVKSLNVQKASTERITSNATSDLNIKVDGRAIVRGNEGVFIMGKTIEFHMGGNMELKAENSIILNGSVMVSTTRLPSSSSGDQLGSGDWVRYKLCMCADGTLFKVQVTSQNMGCQISDNPCGNTH [N39M] | -0.61
MAAAAAAAAEQQSSNGPVKKSMREKAVERRSVNKEHNSHFKAGYIPIDEDRLHKTGLRGRKGNLAICVIILLFILAVINLIITLVIWAVIRIGPNGCDSMEFHESGLLRFKQVSDMGVIHPLYKSTVGGRRNENLVITGNNQPIVFQQGTTKLSVENNKTSITSDIGMQFFDPRTQNILFSTDYETHEFHLPSGVKSLNVQKASTERITSNATSDLNIKVDGRAIVRGNEGVFIMGKTIEFHMGGNMELKAENSIILNGSVMVSTTRLPSSSSGDQLGSGDWVRYKLCMCADGTLFKVQVTSQNMGCQISDNPCGNTH [N39H] | -0.1
MAAAAAAAAEQQSSNGPVKKSMREKAVERRSVNKEHNSAFKAGYIPIDEDRLHKTGLRGRKGNLAICVIILLFILAVINLIITLVIWAVIRIGPNGCDSMEFHESGLLRFKQVSDMGVIHPLYKSTVGGRRNENLVITGNNQPIVFQQGTTKLSVENNKTSITSDIGMQFFDPRTQNILFSTDYETHEFHLPSGVKSLNVQKASTERITSNATSDLNIKVDGRAIVRGNEGVFIMGKTIEFHMGGNMELKAENSIILNGSVMVSTTRLPSSSSGDQLGSGDWVRYKLCMCADGTLFKVQVTSQNMGCQISDNPCGNTH [N39A] | -0.05
MAAAAAAAAEQQSSNGPVKKSMREKAVERRSVNKEHNSQFKAGYIPIDEDRLHKTGLRGRKGNLAICVIILLFILAVINLIITLVIWAVIRIGPNGCDSMEFHESGLLRFKQVSDMGVIHPLYKSTVGGRRNENLVITGNNQPIVFQQGTTKLSVENNKTSITSDIGMQFFDPRTQNILFSTDYETHEFHLPSGVKSLNVQKASTERITSNATSDLNIKVDGRAIVRGNEGVFIMGKTIEFHMGGNMELKAENSIILNGSVMVSTTRLPSSSSGDQLGSGDWVRYKLCMCADGTLFKVQVTSQNMGCQISDNPCGNTH [N39Q] | 0.07
MAAAAAAAAEQQSSNGPVKKSMREKAVERRSVNKEHNSCFKAGYIPIDEDRLHKTGLRGRKGNLAICVIILLFILAVINLIITLVIWAVIRIGPNGCDSMEFHESGLLRFKQVSDMGVIHPLYKSTVGGRRNENLVITGNNQPIVFQQGTTKLSVENNKTSITSDIGMQFFDPRTQNILFSTDYETHEFHLPSGVKSLNVQKASTERITSNATSDLNIKVDGRAIVRGNEGVFIMGKTIEFHMGGNMELKAENSIILNGSVMVSTTRLPSSSSGDQLGSGDWVRYKLCMCADGTLFKVQVTSQNMGCQISDNPCGNTH [N39C] | 0.2
MAAAAAAAAEQQSSNGPVKKSMREKAVERRSVNKEHNSFFKAGYIPIDEDRLHKTGLRGRKGNLAICVIILLFILAVINLIITLVIWAVIRIGPNGCDSMEFHESGLLRFKQVSDMGVIHPLYKSTVGGRRNENLVITGNNQPIVFQQGTTKLSVENNKTSITSDIGMQFFDPRTQNILFSTDYETHEFHLPSGVKSLNVQKASTERITSNATSDLNIKVDGRAIVRGNEGVFIMGKTIEFHMGGNMELKAENSIILNGSVMVSTTRLPSSSSGDQLGSGDWVRYKLCMCADGTLFKVQVTSQNMGCQISDNPCGNTH [N39F] | -0.12
MAAAAAAAAEQQSSNGPVKKSMREKAVERRSVNKEHNSIFKAGYIPIDEDRLHKTGLRGRKGNLAICVIILLFILAVINLIITLVIWAVIRIGPNGCDSMEFHESGLLRFKQVSDMGVIHPLYKSTVGGRRNENLVITGNNQPIVFQQGTTKLSVENNKTSITSDIGMQFFDPRTQNILFSTDYETHEFHLPSGVKSLNVQKASTERITSNATSDLNIKVDGRAIVRGNEGVFIMGKTIEFHMGGNMELKAENSIILNGSVMVSTTRLPSSSSGDQLGSGDWVRYKLCMCADGTLFKVQVTSQNMGCQISDNPCGNTH [N39I] | -0.18
MAAAAAAAAEQQSSNGPVKKSMREKAVERRSVNKEHNSTFKAGYIPIDEDRLHKTGLRGRKGNLAICVIILLFILAVINLIITLVIWAVIRIGPNGCDSMEFHESGLLRFKQVSDMGVIHPLYKSTVGGRRNENLVITGNNQPIVFQQGTTKLSVENNKTSITSDIGMQFFDPRTQNILFSTDYETHEFHLPSGVKSLNVQKASTERITSNATSDLNIKVDGRAIVRGNEGVFIMGKTIEFHMGGNMELKAENSIILNGSVMVSTTRLPSSSSGDQLGSGDWVRYKLCMCADGTLFKVQVTSQNMGCQISDNPCGNTH [N39T] | -0.1
MAAAAAAAAEQQSSNGPVKKSMREKAVERRSVNKEHNSRFKAGYIPIDEDRLHKTGLRGRKGNLAICVIILLFILAVINLIITLVIWAVIRIGPNGCDSMEFHESGLLRFKQVSDMGVIHPLYKSTVGGRRNENLVITGNNQPIVFQQGTTKLSVENNKTSITSDIGMQFFDPRTQNILFSTDYETHEFHLPSGVKSLNVQKASTERITSNATSDLNIKVDGRAIVRGNEGVFIMGKTIEFHMGGNMELKAENSIILNGSVMVSTTRLPSSSSGDQLGSGDWVRYKLCMCADGTLFKVQVTSQNMGCQISDNPCGNTH [N39R] | -0.29
MAAAAAAAAEQQSSNGPVKKSMREKAVERRSVNKEHNSDFKAGYIPIDEDRLHKTGLRGRKGNLAICVIILLFILAVINLIITLVIWAVIRIGPNGCDSMEFHESGLLRFKQVSDMGVIHPLYKSTVGGRRNENLVITGNNQPIVFQQGTTKLSVENNKTSITSDIGMQFFDPRTQNILFSTDYETHEFHLPSGVKSLNVQKASTERITSNATSDLNIKVDGRAIVRGNEGVFIMGKTIEFHMGGNMELKAENSIILNGSVMVSTTRLPSSSSGDQLGSGDWVRYKLCMCADGTLFKVQVTSQNMGCQISDNPCGNTH [N39D] | 0.41
MAAAAAAAAEQQSSNGPVKKSMREKAVERRSVNKEHNSSFKAGYIPIDEDRLHKTGLRGRKGNLAICVIILLFILAVINLIITLVIWAVIRIGPNGCDSMEFHESGLLRFKQVSDMGVIHPLYKSTVGGRRNENLVITGNNQPIVFQQGTTKLSVENNKTSITSDIGMQFFDPRTQNILFSTDYETHEFHLPSGVKSLNVQKASTERITSNATSDLNIKVDGRAIVRGNEGVFIMGKTIEFHMGGNMELKAENSIILNGSVMVSTTRLPSSSSGDQLGSGDWVRYKLCMCADGTLFKVQVTSQNMGCQISDNPCGNTH [N39S] | 0.02
